Measurements reported in patent US20200121783A1.

Biological target: eOD-GT8 60 mer (Aquifex aeolicus; HIV-1)
Test: ELISA, antibody titration

Substance: VRC01 (antibody)
- EC50 (read off the curve): 0.2 µg/mL

Substance: VRC-PG04g1 (v-gene germline revertant of VRC-PG04) (antibody)
- EC50 (read off the curve): 0.5 µg/mL
